Residue numbers refer to the chain shown, from its start.
B1: SEQ ID NO: 373: GAT polypeptide (protein)
chain: MIEVKPINAEDTYEIRHRILRPNQPLEACKYETDLLGGAFHLGGYYRGKLISIASFHQSEHPELEGQKQYQLRGMATLEGYRELKAGSTLIRHAEELLRKKGADLLWCNARISASGYYKKLGFSEQGEVYDIPPIGPHILMYKKLT
modifications: 4B_1G4
notes: GAT polypeptide
B2: SEQ ID NO: 374: GAT polypeptide (protein)
chain: B1 chain with K30M, A39T, S59A, P62S, G80E, L84Q, E128G
modifications: 4B_21C6
notes: GAT polypeptide
B3: SEQ ID NO: 375: GAT polypeptide (protein)
chain: B1 chain with K30M, A39T, S59A, P62S, L84Q, I112T, E128G, D131G
modifications: 4B_2H7
notes: GAT polypeptide
B4: SEQ ID NO: 376: GAT polypeptide (protein)
chain: B1 chain with V4A, A39T, S59A, P62S, L84Q, I112T
modifications: 4B_2H8
notes: GAT polypeptide
B5: SEQ ID NO: 268: GAT polypeptide (protein)
chain: B1 chain with K30M, G37R, S59A, P62S, L84Q, I112T, I132T, I135V
modifications: CHIMERA
notes: GAT polypeptide
B6: SEQ ID NO: 377: GAT polypeptide (protein)
chain: B1 chain with A39T, S59A, P62S, L84Q, I112T, Q126H
modifications: 4B_6D8
notes: GAT polypeptide
B7: SEQ ID NO: 378: GAT polypeptide (protein)
chain: B1 chain with K30M, A39T, S59A, P62S, L84Q, I112T, A114V
modifications: 4B_7E8
notes: GAT polypeptide
B8: SEQ ID NO: 379: GAT polypeptide (protein)
chain: B1 chain with K30M, G37R, S59A, L84Q, I112T, K119E
modifications: 4C_8C9
notes: GAT polypeptide
B9: SEQ ID NO: 380: GAT polypeptide (protein)
chain: B1 chain with K30M, R47Q, S59A, E60V, P62S, L84Q, I112T, A114V, E128G
modifications: 4H1
notes: GAT polypeptide
B10: SEQ ID NO: 381: GAT polypeptide (protein)
chain: B1 chain with K30M, A39T, S59A, P62S, Q67H, G80E, L84Q, I112T, E128G, I135V
modifications: 6_14D10
notes: GAT polypeptide
B11: SEQ ID NO: 382: GAT polypeptide (protein)
chain: B1 chain with A39T, S59A, P62S, L84Q, I112T, I135V
modifications: 6_15G7
notes: GAT polypeptide
B12: SEQ ID NO: 383: GAT polypeptide (protein)
chain: B1 chain with A39T, S59A, P62S, L84Q, I112T, E128G, I135V
modifications: 6_16A5
notes: GAT polypeptide
B13: SEQ ID NO: 384: GAT polypeptide (protein)
chain: B1 chain with K30M, A39T, S59A, E60V, P62S, L84Q, I112T, E128G, I135V
modifications: 6_16F5
notes: GAT polypeptide
B14: SEQ ID NO: 385: GAT polypeptide (protein)
chain: B1 chain with T33A, A39T, S59A, Y81N, L84Q, I112T, I132V
modifications: 6_17C5
notes: GAT polypeptide
B15: SEQ ID NO: 386: GAT polypeptide (protein)
chain: B1 chain with K30R, A39T, S59A, L84Q, I135V
modifications: 6_18C7
notes: GAT polypeptide

assay: Standard protocol for determination of kcat and KM (continuous spectrophotometric assay, Acetyl CoA hydrolysis at 235 nm); type: biochemical; conditions: purified protein; about 23° C.; 20 mM HEPES pH 6.8, 10% ethylene glycol, 0.2 mM acetyl CoA
Protocol: KM was calculated from the initial reaction rates obtained from concentrations of glyphosate ranging from 0.125 to 10 mM, using the Lineweaver-Burke transformation of the Michaelis-Menten equation. kcat/KM was determined by dividing the value determined for kcat by the value determined for KM.
Using this methodology, kinetic parameters for a number of GAT polypeptides exemplified herein were determined. For example, the kcat, KM and kcat/KM for the GAT polypeptide corresponding to SEQ ID NO:445 have been determined to be 322 min^−1, 0.5 mM and 660 mM^−1 min^−1, respectively, using the assay conditions described above. The kcat, KM and kcat/KM for the GAT polypeptide corresponding to SEQ ID NO:457 have been determined to be 118 min^−1, 0.1 mM and 1184 mM^−1 min^−1, respectively, using the assay conditions described above. The kcat, KM and kcat/KM for the GAT polypeptide corresponding to SEQ ID NO:300 have been determined to be 296 min^−1, 0.65 mM and 456 mM^−1 min^−1, respectively, using the assay conditions described above. One of skill in the art can use these numbers to confirm that a GAT activity assay is generating kinetic parameters for a GAT suitable for comparison with the values given herein. For example, the conditions used to compare the activity of GATs should yield the same kinetic constants for SEQ ID NO: 300, 445 and 457 (within normal experimental variance) as those reported herein, when the conditions are used to compare a test GAT with the GAT polypeptides exemplified herein. Kinetic parameters for a number of GAT polypeptide variants were determined according to this methodology and are provided in Table 3.

| Molecule | Kcat [s⁻¹] |
| --- | --- |
| B1 | 0.0617 |
| B2 | 0.197 |
| B3 | 0.45 |
| B4 | 0.638 |
| B5 | 2.59 |
| B6 | 0.378 |
| B7 | 0.342 |
| B8 | 0.15 |
| B9 | 0.0217 |
| B10 | 0.703 |
| B11 | 0.807 |
| B12 | 0.73 |
| B13 | 0.587 |
| B14 | 0.587 |
| B15 | 0.537 |

same assay, conditions: purified protein; about 23° C.; pH 6.8; 0.2 mM acetyl CoA; glyphosate 0.125 to 10 mM

| Molecule | Km [µM] |
| --- | --- |
| B1 | 1000 |
| B2 | 800 |
| B3 | 6200 |
| B4 | 1200 |
| B5 | 1300 |
| B6 | 1500 |
| B7 | 1200 |
| B8 | 600 |
| B9 | 1400 |
| B10 | 1500 |
| B11 | 1300 |
| B12 | 1100 |
| B13 | 1000 |
| B14 | 1300 |
| B15 | 1200 |

Reference: US8008547B2, “Glyphosate-N-acetyltransferase (GAT) genes” (E.I. duPont de Nemours, priority 2000, dated 2011)
